Assay results as given in patent publication US20230212267A1 (WISTAR INSTITUTE OF ANATOMY AND BIOLOGY, published 2023).

What was measured:
[1] = target: recombinant SARS-CoV-2-RBD (Sino Biological) (SARS-CoV-2, UniProt P0DTC2 319-541)
[2] = target: SARS-CoV-2 Spike protein on pseudovirus (wild type) (SARS-CoV-2, UniProt P0DTC2 14-1273); assay: cell-based or functional assay
[3] = target: T1, recombinant SARS-CoV-2 receptor binding domain (RBD) (Examples 1 and 2) (SARS-CoV-2, UniProt P0DTC2 319-541); assay: ELISA, axis RBD Binding (OD450), D14 sera of mice given the S309 DMAb
T1 construct: also called SARS-CoV-2 RBD

[4] = target: T2, recombinant SARS-CoV-2 S1 (Examples 1 and 2) (SARS-CoV-2, UniProt P0DTC2 16-685); assay: ELISA with sera of DMAb-treated mice
T2 construct: domain: Subunit 1 (S1); also called Subunit 1 (S1) domain; S1 domains

[5] = target: T1, recombinant SARS-CoV-2 receptor binding …; assay: ELISA, axis RBD Binding (OD450), serial dilutions of in vitro expressed DMAb

B1: WCoVA7 (antibody, V domains shown)
VH: EVKLLESGGGLVQPGGSLKLSCAASGFDFSRYWMSWVRQAPGKGLEWIGEINPDSSTINYTPSLKDKFIISRDNAKNTLYLQMSKVRSEDTALYYCARIYYGSPGAMDYWGQGTSVTVSS
VL: SIVMTQTPKFLLVSAGDRVTITCKASQSVSNDVAWYQQKPGQSPKLLIYYASNRYTGVPDRFTGSGYGTDFTFTISTVQAEDLAVYFCQQDYFSPYTFGGGTKLEIK
- Kd [1]: 0.28 nM
- koff [1]: 9.3e-05 s⁻¹
- kon [1]: 330000 M⁻¹ s⁻¹
- t1/2 [1]: 2.07 h
- IC50, pseudovirus neutralization (wild type virus) [2]: 2.6 ng/mL

B2: WCoVA9 (antibody, V domains shown)
VH: EVQLQQSGAELVKPGASVKLSCTASGFNIKDTYMHWVKQRPEQGLEWIGRIDPANGNTKYDPKFQAKATITANTSSNTAYLHLSSLTSEDTAVYYCAPYYDYVGAMDYWGQGTSVTVSS
VL: DIQMTQSPASQSASLGESVTITCLASQTIGTWLAWYQQKPGKSPQLLIYAATSLADGVPSRFSGSGSGTKFSFKISSLQAEDFVSYYCQQLYNTPLTFGGGTKLEIK
- Kd [1]: 0.042 nM
- koff [1]: 1.9e-05 s⁻¹
- kon [1]: 470000 M⁻¹ s⁻¹
- t1/2 [1]: 10.1 h
- IC50, pseudovirus neutralization (wild type virus) [2]: 4.9 ng/mL

B3: S309 SARS-CoV-2 DMAb (antibody, V domains shown)
VH: QVQLVQSGAEVKKPGASVKVSCKASGYTFTSYGISWVRQAPGQGLEWMGWISAYNGNTNYAQKLQGRVTMTTDTSTSTAYMELRSLRSDDTAVYYCARDYTRGAWFGESLIGGFDNWGQGTLVTVSA
VL: EIVLTQSPGTLSLSPGERATLSCRASQSVSSSYLAWYQQKPGQAPRLLIYGASSRATGIPDRFSGSGSGTDFTLTISRLEPEDFAVYYCQQHDTSLTFGQGTKVEIKR
notes: also called S309 DMAb
- binding result [3]: binds

B4: 2381 DMAb (antibody)
heavy: not shown
light: EVVLTQSPGTLSLSPGERATLSCRASQSVSSSYLAWYQQKPGQAPRLLIYGASSRATGIPDRFSGSGSGTDFTLTISRLEPEDFAVYHCQHFGSSSQWTFGQGTKVEIKRTVAAPSVFIFPPSDEQLKSGTASVVCLLNNFYPREAKVQWKVDNALQSGNSQESVTEQDSKDSTYSLSNTLTLSKADYEKHKVYACEVTHQGLSSPVTKSFNRGEC
- binding result [4]: binds

B5: 2196 DMAb (antibody, V domains shown)
VH: QMQLVQSGPEVKKPGTSVKVSCKASGFTFTSSAVQWVRQARGQRLEWIGWIAVGSGNTNYAQKFQERVSITRDMSTSTAYMELSSLRSEDTAVYYCAAPYCSSISCNDGFDIWGQGTKVTVSS
VL: EVVLTQSPGTLSLSPGERATLSCRASQSVSSSYLAWYQQKPGQAPRLLIYGASSRATGIPDRFSGSGSGTDFTLTISRLEPEDFAVYHCQHYGSSSQWTFGQGTKVEIKR
notes: also called 2196 WT DMAb
- binding result [4]: binds
- binding result [5]: binds

B6: 2381 (G) (antibody)
heavy: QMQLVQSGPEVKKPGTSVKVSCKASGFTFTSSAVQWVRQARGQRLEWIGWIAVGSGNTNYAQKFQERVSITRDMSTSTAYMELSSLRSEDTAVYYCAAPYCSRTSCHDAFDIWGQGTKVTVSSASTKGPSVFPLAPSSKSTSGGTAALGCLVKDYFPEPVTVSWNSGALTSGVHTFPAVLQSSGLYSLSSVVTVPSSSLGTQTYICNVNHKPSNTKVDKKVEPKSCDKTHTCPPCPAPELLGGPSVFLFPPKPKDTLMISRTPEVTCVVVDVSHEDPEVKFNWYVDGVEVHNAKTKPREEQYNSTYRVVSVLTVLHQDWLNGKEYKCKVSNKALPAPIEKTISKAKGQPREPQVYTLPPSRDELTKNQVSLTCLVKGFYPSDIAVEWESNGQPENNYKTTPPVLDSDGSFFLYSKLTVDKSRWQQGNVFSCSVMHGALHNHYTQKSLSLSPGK
light: EVVLTQSPGTLSLSPGERATLSCRASQSVSSSYLAWYQQKPGQAPRLLIYGASSRATGIPDRFSGSGSGTDFTLTISRLEPEDFAVYHCQHFGSSSQWTFGQGTKVEIKRTVAAPSVFIFPPSDEQLKSGTASVVCLLNNFYPREAKVQWKVDNALQSGNSQESVTEQDSKDSTYSLSNTLTLSKADYEKHKVYACEVTHQGLSSPVTKSFNRGEC
- binding result [5]: binds

B7: 2381 (GK) (antibody)
heavy: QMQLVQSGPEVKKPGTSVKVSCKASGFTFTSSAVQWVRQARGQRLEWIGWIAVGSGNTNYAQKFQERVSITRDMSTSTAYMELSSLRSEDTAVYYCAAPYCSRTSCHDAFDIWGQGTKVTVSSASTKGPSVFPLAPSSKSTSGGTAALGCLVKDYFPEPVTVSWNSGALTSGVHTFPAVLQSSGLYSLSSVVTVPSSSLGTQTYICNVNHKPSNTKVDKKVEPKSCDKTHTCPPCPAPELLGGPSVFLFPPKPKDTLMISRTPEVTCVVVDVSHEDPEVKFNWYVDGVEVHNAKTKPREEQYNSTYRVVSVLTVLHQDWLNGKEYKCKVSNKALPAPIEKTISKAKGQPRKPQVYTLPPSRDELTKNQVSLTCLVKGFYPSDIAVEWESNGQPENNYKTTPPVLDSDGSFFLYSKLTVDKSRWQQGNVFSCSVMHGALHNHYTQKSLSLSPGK
light: EVVLTQSPGTLSLSPGERATLSCRASQSVSSSYLAWYQQKPGQAPRLLIYGASSRATGIPDRFSGSGSGTDFTLTISRLEPEDFAVYHCQHFGSSSQWTFGQGTKVEIKRTVAAPSVFIFPPSDEQLKSGTASVVCLLNNFYPREAKVQWKVDNALQSGNSQESVTEQDSKDSTYSLSNTLTLSKADYEKHKVYACEVTHQGLSSPVTKSFNRGEC
- binding result [5]: binds
